Broadly, the Kd is the constant that tells how readily two partners part at equilibrium. The low end stands for tighter binding, the high end for weaker binding.

The values below come from paper PMC10161063 (Proceedings of the National Academy of Sciences of the …, 2023).

Read-outs that look alike come from different tables or passages of the source. Where no end group is shown, it is not given here.

Assay in all cases: ITC
For experiment [1], the target named is T1, Vac8 (full length, residues 1 to 578) (S. cerevisiae, UniProt P39968 1-578).
T1 sequence: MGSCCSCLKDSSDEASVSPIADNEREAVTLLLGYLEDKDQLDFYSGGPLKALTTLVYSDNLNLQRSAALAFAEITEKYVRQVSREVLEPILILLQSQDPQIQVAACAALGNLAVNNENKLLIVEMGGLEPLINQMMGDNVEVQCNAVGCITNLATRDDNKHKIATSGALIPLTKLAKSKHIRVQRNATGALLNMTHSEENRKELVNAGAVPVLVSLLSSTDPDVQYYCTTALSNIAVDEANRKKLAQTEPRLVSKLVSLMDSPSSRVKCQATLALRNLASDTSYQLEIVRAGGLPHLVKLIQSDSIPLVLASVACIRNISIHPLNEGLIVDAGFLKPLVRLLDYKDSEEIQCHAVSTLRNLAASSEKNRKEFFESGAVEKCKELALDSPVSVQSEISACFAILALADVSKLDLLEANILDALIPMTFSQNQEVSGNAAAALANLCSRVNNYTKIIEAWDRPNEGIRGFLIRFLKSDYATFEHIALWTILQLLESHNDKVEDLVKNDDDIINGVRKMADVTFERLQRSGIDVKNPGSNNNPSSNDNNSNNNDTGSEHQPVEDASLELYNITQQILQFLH

Experiment [2] addresses T2, preformed Vac8–tVac17 complex (ITC sample cell) (S. cerevisiae, UniProt P39968;P25591).
T2 sequence 1: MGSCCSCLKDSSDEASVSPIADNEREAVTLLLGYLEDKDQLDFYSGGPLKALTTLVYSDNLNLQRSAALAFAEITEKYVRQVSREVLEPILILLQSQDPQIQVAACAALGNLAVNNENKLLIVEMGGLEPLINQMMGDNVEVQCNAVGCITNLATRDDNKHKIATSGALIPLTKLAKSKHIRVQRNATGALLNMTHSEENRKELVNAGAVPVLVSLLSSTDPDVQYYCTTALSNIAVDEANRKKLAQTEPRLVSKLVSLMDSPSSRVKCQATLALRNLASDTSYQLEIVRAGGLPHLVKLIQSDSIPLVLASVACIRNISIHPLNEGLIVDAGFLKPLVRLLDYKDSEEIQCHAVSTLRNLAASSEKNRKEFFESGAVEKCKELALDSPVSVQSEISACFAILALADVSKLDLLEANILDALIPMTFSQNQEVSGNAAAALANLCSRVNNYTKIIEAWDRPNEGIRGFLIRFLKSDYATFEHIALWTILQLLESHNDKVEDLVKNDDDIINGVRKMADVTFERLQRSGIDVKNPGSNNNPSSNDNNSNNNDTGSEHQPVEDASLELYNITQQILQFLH
T2 sequence 2: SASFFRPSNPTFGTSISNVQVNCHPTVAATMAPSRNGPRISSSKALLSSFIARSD

Experiment [3] concerns the target T1, Vac8 (full length, residues 1 to 578). The source holds these as a separate data set.

B1: Halo-tag-conjugated tVac17 (Vac17 residues 290 to 344) (domain or fragment)
chain: SASFFRPSNPTFGTSISNVQVNCHPTVAATMAPSRNGPRISSSKALLSSFIARSD
modifications: also: Halo-tag conjugate
In turn, B1 yielded a Kd in experiment [1] of 2.53 µM.

B2: Atg13^567–695 (domain or fragment)
chain: GGNSSTSALNSRRNSLDKSSNKQGMSGLPPIFGGESTSYHHDNKIQKYNQLGVEEDDDDENDRLLNQMGNSATKFKSSISPRSIDSISSSFIKSRIPIRQPYHYSQPTTAPFQAQAKFHKPANKLIDNG
On to B2, for which the Kd in experiment [2] is 9.02 µM.

B3: Nvj1^229–321 (domain or fragment)
chain: NREKDCSSSSEVESQSKCRKESTAEPDSLSRDTRTTSSLKSSTSFPISFKGSIDLKSLNQPSSLLHIQVSPTKSSNLDAQVNTEQAYSQPFRY
For the molecule B3, the Kd in experiment [3] stood at 0.71 µM; in experiment [2], 10 µM.
